Numbering of substitutions follows the chain as printed.
How the values were obtained:
[1] = target: T1, Y311A point mutant of nectin-1
T1 chain: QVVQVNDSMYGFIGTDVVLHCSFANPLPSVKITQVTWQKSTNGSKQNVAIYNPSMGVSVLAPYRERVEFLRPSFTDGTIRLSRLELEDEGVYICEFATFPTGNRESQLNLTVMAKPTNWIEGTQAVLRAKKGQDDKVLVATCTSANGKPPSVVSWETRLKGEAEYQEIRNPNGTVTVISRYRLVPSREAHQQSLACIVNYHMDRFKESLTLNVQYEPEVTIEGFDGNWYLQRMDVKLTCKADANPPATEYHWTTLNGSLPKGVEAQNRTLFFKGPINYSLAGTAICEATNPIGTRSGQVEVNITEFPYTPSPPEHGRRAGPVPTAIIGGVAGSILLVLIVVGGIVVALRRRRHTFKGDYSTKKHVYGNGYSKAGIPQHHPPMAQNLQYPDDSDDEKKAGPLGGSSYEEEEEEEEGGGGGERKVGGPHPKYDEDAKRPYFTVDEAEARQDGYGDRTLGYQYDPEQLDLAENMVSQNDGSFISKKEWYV

[2] = target: T2, S323A point mutant of nectin-1
T2 chain: T1 chain with A284Y, S296A

[3] = target: T3, T310A point mutant of nectin-1
T3 chain: T1 chain with T283A, A284Y

B1: BACE1 (protein)
chain: ETDEEPEEPGRRGSFVEMVDNLRGKSGQGYYVEMTVGSPPQTLNILVDTGSSNFAVGAAPHPFLHRYYQRQLSSTYRDLRKGVYVPYTQGKWEGELGTDLVSIPHGPNVTVRANIAAITESDKFFINGSNWEGILGLAYAEIARPDDSLEPFFDSLVKQTHVPNLFSLQLCGAGFPLNQSEVLASVGGSMIIGGIDHSLYTGSLWYTPIRREWYYEVIIVRVEINGQDLKMDCKEYNYDKSIVDSGTTNLRLPKKVFEAAVKSIKAASSTEKFPDGFWLGEQLVCWQAGTTPWNIFPVISLYLMGEVTNQSFRITILPQQYLRPVEDVATSQDDCYKFAISQSSTGTVMGAVIMEGFYVVFDRARKRIGFAVSACHVHDEFRTAAVEGPFVTLDMEDCGYNIPQTDESTLMTIAYVMAAICALFMLPLCLMVCQWRCLRCLRQQHDDFADDISLLK
- production of CTF bands (Western blot of HEK 293 lysates) [1]: somewhat less effectively increased production in the other two mutants, T310A and Y311A
- production of CTF bands (Western blot of HEK 293 lysates) [2]: Co-expression with BACE1 substantially increased production of CTF bands for the nectin-1 polypeptide mutant S323A
- production of CTF bands (Western blot of HEK 293 lysates) [3]: somewhat less effectively increased production in the other two mutants, T310A and Y311A
